In the supplement of paper PMC12636428:

Each sequence was assayed on Saccharomyces cerevisiae (assay: transcriptional activation domain activity (GFP:mCherry ratio, weighted mean of sorted bins, harmonized to initial dataset scale) (arbitrary fluorescence ratio units); higher = stronger transcriptional activation). Details: beta-estradiol 1 µM; induction time 4 h.
Outline: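 Values are activation activity, found as the read-weighted mean of bin median fluorescence, averaged across barcodes and then mapped linearly onto the initial dataset scale. Barcoded protein tiles fused to an estradiol-inducible synthetic transcription factor were integrated at the URA3 locus of GFP-reporter yeast diploids. Cells were induced for 4 hours at 30 °C with 1 uM beta-estradiol in SC, sorted into 8 bins by GFP:mCherry ratio, and barcode-sequenced, with tiles under 50 reads discarded.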
With “AALFLSVQHKLFYLVMSLARFNLYFLSYSFLLLHAKRRWHWYAEIASIMLFWS” the “transcriptional activation domain activity” value was 50400.
In the case of “PVKADEPAAPVEAVKETETAAPVEDAAAPEVAAEAPKEEVKEEKVRSLRTAIS”, the “transcriptional activation domain activity” value is reported as 27300.
In the case of “SRKGESGREDSGGRDKESRKRSRRDKTPVADERRRDGTRAAEERDRKRRGDHR”, the “transcriptional activation domain activity” value is reported as 49100.
“MDLVLCIGLFGHIPYHLQYSLPFVSFFFSHNIVHYSEMHYFGVVNSGILWLGF” was tested, and the “transcriptional activation domain activity” value was 63300.
For “VKWAKETRGEQRKRLHIVPVGIVYTNKSQYQSRVSSRVHICVHVEAFVQERTS”, the “transcriptional activation domain activity” value was 52100.
For “MNLVSLAAVCLFYFFSPTLFFVPSLCSHGHLFTYGHFLLLLCSLILPWTCFRL”, the “transcriptional activation domain activity” value was 72000.
With “SAFDLADAIEKQSVSKLEKFSTTALSLELNCLVCLIKVLLKMYLSSDPAFEPY” the “transcriptional activation domain activity” value was 42200.
“SRTTSLGVWFLVIQMIWYGLFGALYIWFFCQDWYLFDVHLVFDYLMRFILCLM” was tested, and the “transcriptional activation domain activity” value was 40700.
For “HFVELSTILGIIILHSPAICLQVVLLLFCGLHSVVVALMLDRVPPLIYLAFFV”, the “transcriptional activation domain activity” value was 66100.
With “MSFLLCGFCITFFFRFFLLSLFWMIRREQGICVSRLMFFFSFFFLSFNIIIFA” the “transcriptional activation domain activity” value was 52300.
With “SPTRAYVGANTNSKNASFNDADLLSSSYWIKAYNDHLFSVSESDETSPMNSEL” the “transcriptional activation domain activity” value was 38800.
For “DQKLPNPDDFANFEARIKLLSYDDRLSFYQRYCLKINMQVYYYVLSYILMLTS”, the “transcriptional activation domain activity” value was 53300.
With “ARDDGGGEGAAGETHQAQEARRVLDAGGRARAGAGALRAGPQQHPAPARALRP” the “transcriptional activation domain activity” value was 14300.
For “MTLASLAARRSNCMKRRVGCVVVSQPDRRVISTGYNGTPRGIRNCGEGGCPRC”, the “transcriptional activation domain activity” value was 39100.
“MGQVGVFALHKVLYGIIPLFEIQTCSFYPLLVSLWHIFYLLVYIVMFMRLIIL” was tested, and the “transcriptional activation domain activity” value was 72300.
For “AGQVVQETVHRAGDALKETAESAAQHVFSPRRRRRRRRSSRTGSERAVVCCSR”, the “transcriptional activation domain activity” value was 62000.
In the case of “MAKLRELMKKLEEEVVGEDGEKRMVQPTIMQEPFRSFFRTAVSVYLPNVLGAK”, the “transcriptional activation domain activity” value is reported as 52600.
For “NLNSLNQSEEEGHIGRWPPLGYEAVSAEQKSAVQLRESQAGASISNNMNFKAN”, the “transcriptional activation domain activity” value was 48200.
In the case of “TNPDKIRLIPGFKYLQLVLGRDQYCREILAMMARMGFLMPKTMYSTLLRLWLL”, the “transcriptional activation domain activity” value is reported as 65200.
“VLDLVCIKFLSLFTFYIFLLLYLSIFQIICFFLFPFLFLFFPSCPLRRFLFSY” was tested, and the “transcriptional activation domain activity” value was 47000.
For “SFSLSVLSFFFFSIWLPLPPLSLSLSLFSPHLFPPLPFTLSLWVQWLYTFSYY”, the “transcriptional activation domain activity” value was 79300.
With “EASLKAQKDEENESEEEGEGEEKEEGEKKEEEKKEEEKKEEEKKEDLEKLTEK” the “transcriptional activation domain activity” value was 33100.
In the case of “MSENTAVENVTATLEKTKLEAPVTNEAEVAHAASAAEGRRLYIGNLAYSTTEE”, the “transcriptional activation domain activity” value is reported as 33100.
With “DGGGRDSEKRGKGKLITRKSHRKSRLGCGNCKQRRIKCDEKRPHCTNCQKRDI” the “transcriptional activation domain activity” value was 37600.
In the case of “FYPIGRRWQWYWGLWVCACALISLFSNIEVDRYYLQSLPITITIFFWYLMCMG”, the “transcriptional activation domain activity” value is reported as 28200.
“DRNYKRVARQIGFTIDRKHGDDLRHFPIERARLELIWPLLGFGLSCYLCYGWV” was tested, and the “transcriptional activation domain activity” value was 49600.
In the case of “RYNHLFDETLVAICVLLGRIGGRFIVDDFEVMWCHNLFRTKVVKAIVVFALAY”, the “transcriptional activation domain activity” value is reported as 39600.
“KFSLGGALYLLTRYCVLLQLIFDVTYEMQPPWTLNNVVWVANISDLVSGISIH” was tested, and the “transcriptional activation domain activity” value was 34400.
With “LKDEVMKIKPVQKQTRAGQRTRFKAVVIVGDSNGHVGLGIKTAKEVATAIRAA” the “transcriptional activation domain activity” value was 81600.
In the case of “MHCVLALSLGLLSRVIVFYGCSFRGKLHFMMFWEALYLLLIFMRMLWLLFFIT”, the “transcriptional activation domain activity” value is reported as 51000.
In the case of “ARVIRCNRSAELHVVNRLREVCEDQELRADSTALTSLVRTCRSDLRACINALQ”, the “transcriptional activation domain activity” value is reported as 59300.
For “EEEERKQNEKRERAEERRKEKLEEEKEKREKDRKETEKKGGKGKGEQGKGKEK”, the “transcriptional activation domain activity” value was 17200.
With “MYICVRKVYVHFDMNLRVYWIVAIMVKCICGLVELCLITSPPYIMLVLSKLFL” the “transcriptional activation domain activity” value was 32100.
For “EKRGLDTKNIYVGAEPFDAELRQRLESEQSFSFRSTDIIHFVAMLLIRYLFDL”, the “transcriptional activation domain activity” value was 59300.
